Reference: paper PMC3887192
pKd: −log10 of the molar value.

Target: HLA A*0201-…
Experiment: SPR
Details: 25 °C

Substance	pKd	dG [kcal/mol-1]	other: Half-life [s]
MEL5 TCR MEL5β6 (CDR2&3 mutations, not printed)	6.68	-8.49	11.4
MEL5 TCR MEL5β1 (CDR2 mutations, not printed)	5.74	-7.31	2.4
MEL5 TCR MEL5β7 (CDR2&3 mutations, not printed)	6.27	-7.97	27.6
MEL5 TCR MEL5β5 (CDR2&3 mutations, not printed)	5.68	-7.22	1.2
MEL5 TCR MEL5β3 (CDR2 mutations, not printed)	6.07	-7.72	4.2
MEL5 TCR MEL5β2 (CDR2 mutations, not printed)	5.89	-7.49	2.4
MEL5 TCR MEL5β4 (CDR2 mutations, not printed)	5.85	-7.45	3

Now those with a higher pKd, led by results:

pKd	dG [kcal/mol-1]	other: Half-life [s]	Substance
6.77	-8.61	49.2	MEL5 TCR MEL5β8 (CDR2&3 mutations, not printed)
7.59	-9.65	1100	ILA1 TCR ILA1α1 (CDR3 mutations, not printed)
8.02	–	–	ILA1 TCR ILA1β1 (CDR2 mutations, not printed)
8.04	–	–	ILA1 TCR ILA1β2 (CDR2 mutations, not printed)
8.51	–	–	ILA1 TCR ILA1α1β2 (CDR2&3 mutations, not printed)
8.70	–	–	ILA1 TCR ILA1α1β1 (CDR2&3 mutations, not printed)
